Results reported in patent publication US20030175712A1 (published 2003).

T1: Cdc24-m1p (1-288 aa), GAL4 two-hybrid fusion (S. cerevisiae, UniProt P11433 1-288)
T1 construct: also called cdc24-m1 (1-288)
T1 sequence: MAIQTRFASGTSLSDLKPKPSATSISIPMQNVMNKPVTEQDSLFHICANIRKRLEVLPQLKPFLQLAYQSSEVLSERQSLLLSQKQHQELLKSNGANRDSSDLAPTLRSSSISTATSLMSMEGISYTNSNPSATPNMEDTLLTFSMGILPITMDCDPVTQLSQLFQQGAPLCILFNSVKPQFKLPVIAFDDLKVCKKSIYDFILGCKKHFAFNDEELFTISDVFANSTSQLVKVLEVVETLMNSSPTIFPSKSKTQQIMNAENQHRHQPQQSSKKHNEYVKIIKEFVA

T2: Cdc24-m3p (1-288 aa), GAL4 two-hybrid fusion (S. cerevisiae, UniProt P11433 1-288)
T2 sequence: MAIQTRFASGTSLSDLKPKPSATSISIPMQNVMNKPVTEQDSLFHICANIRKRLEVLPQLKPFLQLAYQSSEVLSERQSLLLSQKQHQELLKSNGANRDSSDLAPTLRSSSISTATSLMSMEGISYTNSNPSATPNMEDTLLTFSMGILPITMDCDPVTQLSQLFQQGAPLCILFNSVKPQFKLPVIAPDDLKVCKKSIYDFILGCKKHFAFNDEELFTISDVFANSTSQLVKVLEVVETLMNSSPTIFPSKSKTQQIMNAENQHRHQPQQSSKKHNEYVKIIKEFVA

T3: GSTCdc24p (1-127 aa) (S. cerevisiae, UniProt P11433 1-127)
T3 construct: not shown: glutathione-S-transferase as encoded by pGEX-2T (Pharmacia)
T3 sequence (looked up): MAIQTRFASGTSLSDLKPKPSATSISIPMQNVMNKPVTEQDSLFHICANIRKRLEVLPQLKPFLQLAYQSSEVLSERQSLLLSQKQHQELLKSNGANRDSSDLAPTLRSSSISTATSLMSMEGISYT


Key:
[1] = biological target: T1, Cdc24-m1p (1-288 aa), GAL4 two-hybrid …; assay: yeast two-hybrid, growth on -leu-trp-his
Description: (§1) Plasmids were transformed into HF7c. For determination of STE18 requirement, PCR-based geene disruption was carried out in PJ69-4A (MATa, trp1-901, leu2-3,112, ura3-52, his3-200, gal4D, gal80D, GAL2-ADE2, LYS2::GAL1-HIS3, met2::GAL7-lacZ)²⁹, replacing the entire STE18 ORF with K. Lactis URA3³⁰. For all two-hybrid experiments, equal amounts of transfonnants were spotted on SC-leu-trp and SC-leu-trp-his plates, identical results were obtained with at least four transformants, and for Dste18 two independent deletion strains. All strains for two-hybrid analyses expressed similar amounts of AD- and DBD- fusion proteins of the expected sizes, as determined by SDS-PAGE and immuno-blotting.
(§2) cdc24-m mutants are defective in mating and Ste4p (Gβ) binding. a, Location of Cdc24p mating mutations. Mating patches show diploids from mating with MATa WT tester. Ste4 2-H patch growth on -leu-trp-his indicates an interaction of Cdc24p (1-288 aa) with Ste4p. Similar results were obtained using a LacZ reporter in strain Y187 (relative Miller Units 100 for Cdc24/Ste4 and 3 for Cdc24-m1/Ste4). b, Two hybrid interactions of Cdc24p. Fror interactions with Ste4p, a fragment of Cdc24p (1-288 aa) was used, however, fill length Cdc24p also interats with Ste4p. c, Region of Cdc24p necessary for Ste4p interaction. […]

[2] = biological target: T2, Cdc24-m3p (1-288 aa), GAL4 two-hybrid …; assay: yeast two-hybrid, growth on -leu-trp-his
Description: as §1, §2

[3] = biological target: T4, Cdc24p (1-160 aa) fused to GAL4 DBD (S. cerevisiae, UniProt P04386 1-147; P11433 1-160); assay: yeast two-hybrid, Cdc24p fragments fused to DBD
T4 construct: also called amino-terminal fragment consisting of the first 160 amino acid residues
Description: as §1, §2

[4] = biological target: T5, GST (UniProt P08515 1-218 = GST); assay: GSH-agarose pull-down from mixed bacterial extracts, immunoblot
T5 construct: Control; also called GST alone; glutathione-S-transferase
Description: (§3) A fragment of CDC24 (1-472 aa) in pGEX-2T (Pharmacia) and His₆Ste4p (pTrcSte4) were expressed in E. coli. Cells were resuspended in buffer A (PBS, 0.1% TX-100, Phenyl Methyl Sulfonyl Fluoride (PMSF), leupeptin, chymostatin, pepstatin, aprotinin) and lysed by snap freezing in liquid nitrogen followed by sonicatioin. Insoluble material was removed by centrifuigation (10,000 g). Mixed supernatants (denoted cell extracts) containing His₆Ste4 and GSTCdc24 fusions were incubated with GSH-agarose (Sigma Chemical Co.) at 4° for 1 hr. Resin was washed 3 times with buffer A. Resin samples (referred to as eluates) and extracts were analyzed by SDS-PAGE, immuno-blottinig probed with Omni-probe anti-sera (Santa Cruz), and visualised with enhanced chemiluhniuescence (Amershan).
as §2

[5] = biological target: T3, GSTCdc24p (1-127 aa); assay: as above
Description: as §3, §2

T5 sequence (P08515 whole entry): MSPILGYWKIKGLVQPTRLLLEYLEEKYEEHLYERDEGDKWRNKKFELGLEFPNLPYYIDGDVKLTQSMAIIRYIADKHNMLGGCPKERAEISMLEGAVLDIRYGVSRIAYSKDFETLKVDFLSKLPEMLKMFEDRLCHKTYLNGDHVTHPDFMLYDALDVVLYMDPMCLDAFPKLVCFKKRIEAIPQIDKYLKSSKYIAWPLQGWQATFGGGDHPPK

Binder | binding result [1] | binding result [2] | binding result [3] | binding result [4] | binding result [5]
Ste4p, GAL4 two-hybrid fusion (other, not shown: small tags and cut ends, also called Gβ) MAHQMDSITYSNNVTQQYIQPQSLQDISAVEEEIQNKIEAARQESKQLHAQINKAKHKIQDASLFQMANKVTSLTKNKINLKPNIVLKGHNNKISDFRWSRDSKRILSASQDGFMLIWDSASGLKQNAIPLDSQWVLSCAISPSSTLVASAGLNNNCTIYRVSKENRVAQNVASIFKGHTCYISDIEFTDNAHILTASGDMTCALWDIPKAKRVREYSDHLGDVLALAIPEEPNLENSSNTFASCGSDGYTYIWDSRSPSAVQSFYVNDSDINALRFFKDGMSIVAGSDNGAINMYDLRSDCSIATFSLFRGYEERTPTPTYMAANMEYNTAQSPQTLKSTSSSYLDNQGVVSLDFSASGRLMYSCYTDIGCVVWDVLKGEIVGKLEGHGGRVTGVRSSPDGLAVCTGSWDSTMKIWSPGYQ | no binding | no binding | no binding |  | 
His6Ste4p (other, Expressed in E. coli; migrates as a doublet due to proteolysis; also called Hexahistidine-tagged Ste4p; pTrcSte4; not shown: hexahistidine tag with the leader of the pTrc vector) MAHQMDSITYSNNVTQQYIQPQSLQDISAVEEEIQNKIEAARQESKQLHAQINKAKHKIQDASLFQMANKVTSLTKNKINLKPNIVLKGHNNKISDFRWSRDSKRILSASQDGFMLIWDSASGLKQNAIPLDSQWVLSCAISPSSTLVASAGLNNNCTIYRVSKENRVAQNVASIFKGHTCYISDIEFTDNAHILTASGDMTCALWDIPKAKRVREYSDHLGDVLALAIPEEPNLENSSNTFASCGSDGYTYIWDSRSPSAVQSFYVNDSDINALRFFKDGMSIVAGSDNGAINMYDLRSDCSIATFSLFRGYEERTPTPTYMAANMEYNTAQSPQTLKSTSSSYLDNQGVVSLDFSASGRLMYSCYTDIGCVVWDVLKGEIVGKLEGHGGRVTGVRSSPDGLAVCTGSWDSTMKIWSPGYQ |  |  |  | no binding | no binding
